Reference: the Human Domainome abundance scans (Beltran et al. 2025)

B1: REST corepressor 3, residues 87 to 134; numbered along this chain, Q9P2K3 (parent)
chain: DEWTVEDKVLFEQAFSFHGKSFHRIQQMLPDKTIASLVKYYYSWKKTR
B2: Zinc finger homeobox protein 4, residues 2086 to 2141; numbered along this chain, Q86UP3 (parent)
chain: RPRTRITDDQLKILRAYFDINNSPSEEQIQEMAEKSGLSQKVIKHWFRNTLFKERQ

Variants of: B1
Assay: abundance fitness (aPCA) (normalised: wild type 0, dead -1); higher = more abundant; growth selection in yeast, the domain comes from the species named
Settings: Homo sapiens

Abundance fitness, by site and new letter:
R24: G -0.74 | S -0.465 | V -0.508
S16: L -0.257 | E 0.339 | P -0.579 | I -0.554 | M -0.167 | W -0.568 | Y -0.391 | C -0.607 | R -0.014 | A -0.077 | G -0.081 | Q -0.084 | K -0.22 | D 0.149 | V -0.393 | T -0.427
Q27: G -0.673 | A 0.069 | I -0.924 | K -0.419 | D -0.62 | C -0.752
F22: S -0.897 | K -0.551 | Y -0.424 | W 0.52 | G -0.739 | V -0.809 | L -0.693 | M -0.55 | A -0.692 | R -1.07
E12: L -0.476 | G -0.708 | V -0.801 | T -0.252 | K -0.643 | I -0.24 | S -0.822 | D -0.07 | R -1.01 | A -0.582 | Q -0.528
K20: E -0.353 | W -0.551 | G -0.278 | R -0.544 | S -0.393 | L -0.665 | V -0.737 | A -0.343 | T -0.399 | P -0.704 | C -0.337 | N -0.306 | M 0.033
S21: C 0.164 | Q 0.303 | W -0.107 | V -0.323 | L -0.63 | H -0.185 | E 0.261 | D 1.11 | A 0.221 | N 0.349 | R 0.233 | M -0.344 | G -1.12
D7: A -0.811 | E -0.617 | Q -0.156 | G -0.571 | S -0.611 | P -0.411 | W -0.762 | T -0.708 | N -0.821 | V -0.687 | L -0.796 | Y -0.686
Q26: K 0.249 | R -0.232 | G -0.757 | M -0.438 | C -0.172 | L -0.648 | Y -0.428 | F -0.595 | V -0.692 | W -0.82 | S -0.79
H18: G -0.764 | W -0.894 | S -0.706 | I 0.283 | Y -0.05 | Q -0.895 | N -0.785 | V -0.974 | L -0.731 | T -0.39
A14: E -0.811 | K -0.393 | Y -0.578 | R -0.635 | S -0.993 | T -0.609 | F -0.453 | I -0.655 | G -0.73 | W -0.664 | C -0.71 | L -0.392
F17: D 0.259 | R 0.137 | G -0.793 | P -0.537 | C -0.853 | H -0.207 | L -0.206 | K 0.207 | A -0.307 | N -0.208 | Q -0.654 | E 0.376 | S 0.262 | T 0.36 | W -0.61 | I -0.055 | M -0.553 | Y -0.592
V5: C -0.478 | S -0.3 | L -0.458 | F -0.222 | M -0.612 | Q -0.154 | I -0.316 | E 0.388 | Y 0.218 | P -0.393 | K 0.208 | A -0.137 | R -0.163 | G -0.658 | T -0.436 | D -0.104
F11: S -0.736 | L -1.14 | P -0.834 | D -0.873 | E -0.769 | G -0.768 | A -0.715 | C -0.265 | V -0.812
E2: Q -0.486 | S -0.441 | K 0.3 | G 0.037 | N 0.294 | R -0.107 | H -0.265 | A -0.797 | L -0.593 | Y -0.208 | T -0.302 | V -0.859 | C -0.116
W3: G -0.912 | V -0.677 | C -0.776 | M -0.629 | S -0.651 | L -0.858 | I -0.465 | R -1.02 | F -0.264
E6: I -0.58 | A -0.388 | Q 0.293 | R -0.273 | F -0.542 | D -0.466 | L -0.614 | T -0.323 | V -0.777
G19: D -0.487 | V -0.805 | S -0.487
Q13: C -1.02 | I -0.56 | K -0.458 | R -0.46 | E -0.288 | H -0.234 | W -0.742 | G -0.948 | A -0.389 | M -0.101 | L -0.679 | F -0.614 | S -0.584 | D -0.644
V9: H -0.237 | E -0.302 | K -0.201 | D -0.258 | N 0.166 | P -0.828 | I 0.032 | W -0.18 | Y -0.581 | G -0.17 | M -0.592 | T -0.024 | L -0.28 | F -0.531 | A -0.216 | R -0.167 | S -0.143
T4: V -0.756 | R -0.634 | P -0.83 | S -0.198 | N -0.257 | G -0.84 | D -0.53 | L -0.727
F15: P -0.881 | S -0.632 | L -0.658 | T -0.604 | V -0.392 | R -0.675 | G -0.731 | C 0.29 | K -0.585 | W -0.637
D1: G 0.138 | E -0.195
H23: N -0.124 | K 0.381 | Y -0.702 | V -0.3 | C -0.649 | S -0.092 | W -0.56 | R -0.407 | E -0.07 | Q -0.258 | P -0.331 | G -0.642 | A -0.164 | D -0.517
L10: T -0.723 | A -0.317 | I -0.117 | K 0.546 | S -0.763 | V -0.051 | R -0.213 | M 0.745
K8: I -0.388 | Q -0.457 | G -0.673 | L -0.779 | T -0.542 | S -0.822 | H -0.594 | R -0.434 | V -0.625 | M -0.035 | P -0.763
I25: L -0.358 | F -0.838 | H -0.692 | E -0.693 | G -0.903 | A -0.567 | M -0.708 | V -0.74 | T -0.713 | P -0.568 | R -0.975 | S -0.945 | Y -0.522 | K -0.54 | D -0.531

Variants of: B2
Assay: as above
Settings: Homo sapiens

Abundance fitness: each site, then its substitutions
Q56: H -0.363 | E -0.77 | G -0.439 | N -0.083 | K 0.295 | L -0.214 | V -0.568 | C -0.802 | M -0.12 | A -0.646 | R -0.024 | W -0.492 | T -0.07 | S -0.502
E54: N -0.149 | P -0.182 | V -0.057 | Q -0.206 | M -0.375 | R -0.1 | S -0.047 | T -0.189 | W -0.215
R55: P -0.118 | M -0.198 | T -0.158 | Q -0.028 | F -0.125 | V -0.204 | W -0.215 | L -0.091 | E -0.059 | Y -0.431 | D -0.163 | G -0.038 | C 0.016 | N -0.255 | A -0.025 | S -0.011 | H 0.256 | I -0.632
